# Bridge positions count the residues as written; N and C are the ends. Square brackets hold non-standard residues; d marks the D form. Peptide text beside a SMILES is read from it. * marks the point of attachment. NOTA = O=C(O)CN1CCN(CC(=O)O)CCN(CC(=O)*)CC1; Nle = CCCC[C@H](N)C(=O)O; AEEA = NCCOCCOCC(=O)O
# Columns and labels:
# [1] = set-up: species or system human
# From the text: The rat SUVs were translated into a percentage of injected activity (%IA, Equation (3)) for human organs according to Equation (3) (Table S3), where SUVA is the SUVs of the rat organs; gorgan and kgTBweight are, respectively, standard organ weight and standard total body weight of a human. The standard organ masses and total-body weight values were obtained from the OLINDA software (organ level internal dose assessment code, Vanderbilt University, USA, 2007). (3) %IAOrganhuman=SUVA∗gorgan/kgTBweighthuman The %IA values were decay corrected to the animal termination time point at 5, 10, 30, 40, 60, and 120 min post administration and plotted as a function of time. The area under the curve for each organ was integrated using the trapezoid method assuming a simple exponential decay to eternity after the last point. The derived time-integrated activity coefficient (TIAC) for each organ, which is equal to the number of disintegrations (MBq-h/MBq) and dose rate S-values extracted from the Medical Internal […] (MIRD) pamphlet, was used for the computation of organ and whole-body effective doses (mSv/MBq) in humans in the OLINDA/EXM software package (Version 1.1, Vanderbilt University).
# [2] = in vivo; conditions: female, BALB/c, mouse, iv, total radioactivity
# Description: The animals (BALB/c female mice, n = 6) were administered with carbon tetrachloride (CCl4) formulated in a corn oil solution (20%, 0.5 mg per gram of body weight) into the lower side of the abdomen three times a week for three weeks. The wellbeing of the animals was monitored for 30 min after the injection and once per day afterwards. The development of liver fibrosis was confirmed by post-mortem Sirius Red staining of the PFA liver biopsies.
# Healthy mice (n = 4, 19.6 ± 1.0 g) and mice with CCl4 induced liver fibrosis (n = 5, 21.55 ± 1.12 g) were intravenously administered with [^68Ga]Ga-NO2A-[Nle^13]-Col (5.2 ± 2.1 MBq, 0.31 ± 0.09 ug and 6.1 ± 2.1 MBq, 0.35 ± 0.08 ug) and the tracer organ distribution was studied after a 60 min incubation ex vivo (Table S1). The weight of the excised organs of interest (blood, heart, lung, liver, pancreas, spleen, kidney, intestines, muscle, brain) was noted and the radioactivity was measured using an automated gamma counter (2480 Wizard2^TM, PerkinElmer, Waltham, MA, USA) with a correction for dead-time and radioactivity decay.
smiles,measurement,setting,value
"CCCC[C@@H]1NC(=O)[C@H](C(C)C)NC(=O)[C@H](CCCNC(=N)N)NC(=O)CNC(=O)[C@@H]2CCCN2C(=O)[C@@H](NC(=O)COCCOCCNC(=O)CN2CCN(CC(=O)O)CCN(CC(=O)O)CC2)CSSC[C@@H](C(=O)O)NC(=O)[C@@H]2CCCN2C(=O)CNC(=O)[C@H](CCC(=O)O)NC(=O)[C@H](CC(=O)O)NC(=O)[C@H](CC(=O)O)NC(=O)CNC(=O)[C@H](CC(C)C)NC(=O)[C@H](Cc2c[nH]cn2)NC(=O)[C@H](CC(C)C)NC(=O)CNC(=O)[C@H](Cc2c[nH]cn2)NC1=O [[^68Ga]Ga-NO2A-[Nle^13]-Col, [^68Ga]Ga-NOTA-PEG2-c[CPGRVNleHGLHLGDDEGPC], metal not drawn] ({NOTA-AEEA}-CPGRV[Nle]HGLHLGDDEGPC-OH; disulfide 1-18)",PET/CT examinations per year,[1],4-5
same,administration per year allowed by bone marrow absorbed dose,[1],"8000-10,000 MBq per year"
same,dose of all organs other than kidney,[1],lower than 0.02 mSv/MBq
same,dose of the remaining organs,[1],less than 0.009 mSv/MBq
same,"estimated absorbed dose, spleen",[1],0.003 mGy/MBq
same,SUV at 1 h,"[2]; 5.2 MBq, SUV lungs (LU)",0.0679 SUV
same,SUV at 1 h,"[2]; 6.1 MBq, SUV kidneys (KI)",2.12 SUV

# Reference: publication PMC8537947, “Improved Radiolytic Stability of a ^68Ga-labelled Collagelin Analogue for the Imaging of Fibrosis” (Pharmaceuticals, 2021)
